T1: GAL4/CAS (human, UniProt P55060 1-971)
T1 sequence (looked up): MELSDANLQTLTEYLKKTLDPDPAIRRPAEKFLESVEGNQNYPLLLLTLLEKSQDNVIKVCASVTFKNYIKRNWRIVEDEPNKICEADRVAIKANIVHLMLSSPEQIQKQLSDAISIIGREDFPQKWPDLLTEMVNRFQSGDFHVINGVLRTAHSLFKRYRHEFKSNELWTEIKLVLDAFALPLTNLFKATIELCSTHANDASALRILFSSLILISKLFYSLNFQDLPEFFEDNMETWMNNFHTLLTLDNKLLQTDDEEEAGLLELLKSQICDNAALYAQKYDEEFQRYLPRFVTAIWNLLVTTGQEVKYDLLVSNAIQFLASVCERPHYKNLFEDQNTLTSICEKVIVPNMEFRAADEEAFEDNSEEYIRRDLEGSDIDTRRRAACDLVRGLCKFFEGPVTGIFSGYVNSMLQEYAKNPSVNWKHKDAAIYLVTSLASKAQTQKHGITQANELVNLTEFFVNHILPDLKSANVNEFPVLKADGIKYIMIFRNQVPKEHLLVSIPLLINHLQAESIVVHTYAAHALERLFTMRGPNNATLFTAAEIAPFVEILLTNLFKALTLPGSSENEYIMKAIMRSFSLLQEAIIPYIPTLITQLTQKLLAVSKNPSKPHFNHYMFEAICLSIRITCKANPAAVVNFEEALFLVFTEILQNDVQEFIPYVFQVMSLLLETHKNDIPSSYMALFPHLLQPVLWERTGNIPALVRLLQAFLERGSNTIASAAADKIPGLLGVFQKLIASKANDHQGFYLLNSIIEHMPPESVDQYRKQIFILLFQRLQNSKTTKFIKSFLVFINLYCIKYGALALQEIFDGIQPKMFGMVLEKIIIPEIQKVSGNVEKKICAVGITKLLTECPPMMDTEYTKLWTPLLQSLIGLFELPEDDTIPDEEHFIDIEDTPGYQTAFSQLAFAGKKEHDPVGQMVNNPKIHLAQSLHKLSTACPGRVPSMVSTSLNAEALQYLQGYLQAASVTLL


Legend:
GAL4/CAS = biological target: T1, GAL4/CAS; experiment: two-hybrid
GAL4/Imp βΔ1/261 = GAL4/Imp βΔ1/261 (human, UniProt Q14974 262-876); experiment: two-hybrid
Chain of GAL4/Imp βΔ1/261 (Q14974 262-876, stated change not applied): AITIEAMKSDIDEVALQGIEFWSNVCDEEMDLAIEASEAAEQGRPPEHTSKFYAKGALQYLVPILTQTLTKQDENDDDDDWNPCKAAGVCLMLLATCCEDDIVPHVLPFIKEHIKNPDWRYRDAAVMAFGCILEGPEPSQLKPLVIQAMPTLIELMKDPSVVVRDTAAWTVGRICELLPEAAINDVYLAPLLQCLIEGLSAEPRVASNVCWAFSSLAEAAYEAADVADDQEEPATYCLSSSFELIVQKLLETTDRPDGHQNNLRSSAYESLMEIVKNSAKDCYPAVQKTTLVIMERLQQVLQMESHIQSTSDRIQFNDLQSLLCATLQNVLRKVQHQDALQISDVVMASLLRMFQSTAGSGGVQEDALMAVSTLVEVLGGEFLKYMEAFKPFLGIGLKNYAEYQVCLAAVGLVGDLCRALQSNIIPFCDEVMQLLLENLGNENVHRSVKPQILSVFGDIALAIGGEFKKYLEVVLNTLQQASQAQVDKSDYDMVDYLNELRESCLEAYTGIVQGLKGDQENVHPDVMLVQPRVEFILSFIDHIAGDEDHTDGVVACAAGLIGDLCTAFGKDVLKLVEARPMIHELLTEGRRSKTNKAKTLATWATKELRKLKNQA

Binder	β-gal activity (GAL4/CAS)	β-gal activity (GAL4/Imp βΔ1/261)
VP16/Imp α4 (natural protein, human, UniProt O00505 1-521, looked up) MAENPSLENHRIKSFKNKGRDVETMRRHRNEVTVELRKNKRDEHLLKKRNVPQEESLEDSDVDADFKAQNVTLEAILQNATSDNPVVQLSAVQAARKLLSSDRNPPIDDLIKSGILPILVKCLERDDNPSLQFEAAWALTNIASGTSAQTQAVVQSNAVPLFLRLLRSPHQNVCEQAVWALGNIIGDGPQCRDYVISLGVVKPLLSFISPSIPITFLRNVTWVIVNLCRNKDPPPPMETVQEILPALCVLIYHTDINILVDTVWALSYLTDGGNEQIQMVIDSGVVPFLVPLLSHQEVKVQTAALRAVGNIVTGTDEQTQVVLNCDVLSHFPNLLSHPKEKINKEAVWFLSNITAGNQQQVQAVIDAGLIPMIIHQLAKGDFGTQKEAAWAISNLTISGRKDQVEYLVQQNVIPPFCNLLSVKDSQVVQVVLDGLKNILIMAGDEASTIAEIIEECGGLEKIEVLQQHENEDIYKLAFEIIDQYFSGDDIDEDPCLIPEATQGGTYNFDPTANLQTKEFNF	174 mOD/ml	1850 mOD/ml
VP16/Imp α1 (natural protein) not shown	101 mOD/ml	2350 mOD/ml

Reference: paper PMC2132842 (The Journal of Cell Biology, 1998)
